A short description of series [1]: TTA-ADH coupled assay at different L-Thr concentrations (apparent L-Thr KM and kcat). Format: biochemical. Here is the method:
High-throughput screening of purified TTAs was performed with a TTA-ADH coupled assay using purified TTA and commercially available alcohol dehydrogenase from S. cerevisiae purchased from MilliporeSigma. Aldehyde stocks were prepared in 50-100 mM solutions in DMSO or acetonitrile. Reaction mixtures were prepared in a 96-well plate with 100 μL of 100 mM phosphate buffer pH 7.5, 0.5 mM NADH, 0.4 mM PLP, 15 mM MgCl2, and 100 mM L-Thr with the addition of 0.25 mM to 1 mM aldehyde depending on the background absorbance at 340 nm (Table 4), 10 U ScADH, and 0.25 μM purified TTA unless otherwise specified. Reactions were initiated with the addition of enzyme. […] The following controls were included for every assay: reaction mixture without aldehyde, without TTA, and without enzyme (TTA or ADH). Rates were calculated by identifying the linear region at the beginning of the kinetic run and converting the depletion in absorbance to the depletion of mM NADH using an NADH standard curve.
We next sought to determine the affinity of these enzymes for L-Thr, which we obtained by performing the TTA-ADH coupled assay at different L-Thr concentrations (FIG. 16b). […] Two differences between our assays were the substrate, phenylacetaldehyde (14) instead of 4-nitrophenylacetylaldehyde (15), and the assay format, ADH coupling rather than a discontinuous HPLC assay. Because a live cellular environment would also contain alcohol dehydrogenases for reduction of acetaldehyde, it is possible that the KM values that we are measuring using the TTA-ADH coupled assay may be more realistic for our envisioned applications.

Series [2] relates to wild-type E. coli MG1655. The series is described as follows: β-OH-nsAA biosynthesis during aerobic fermentation in wild-type E. coli MG1655. It is filed as cell-based, Escherichia coli. Conditions: SUMO-tagged construct, 1 mM 3, 20 h. Here is the method:
Metabolites of interest were quantified via high-performance liquid chromatography (HPLC) using an Agilent 1260 Infinity model equipped with a Zorbax Eclipse Plus-C18 column. To quantify aldehyde and β-OH-nsAAs, an initial mobile phase of solvent A/B=95/5 was used (solvent A, water+0.1% TFA; solvent B, acetonitrile+0.1% TFA) and maintained for 5 min. A gradient elution was performed (A/B) as follows: gradient from 95/5 to 50/50 for 5-12 min, gradient from 50/50 to 0/100 for 12-13 min, and gradient from 0/100 to 95/5 for 13-14 min. A flow rate of 1 mL min-1 was maintained, and absorption was monitored at 210, 250 and 280 nm.
For screening TTA activity in aerobically growing cells, we inoculated strains transformed with plasmids expressing TTAs into 300 μL volumes of MOPS EZ Rich media in a 96-deep-well plate with appropriate antibiotic added to maintain plasmids (50 μg/mL kanamycin (Kan)). Cultures were incubated at 37° C. with shaking at 1000 RPM and an orbital radius of 1.25 mm until an OD600 of 0.5-0.8 was reached. OD600 was measured using a SPECTRAMAX® i3× plate reader. At this point, the TTAs were induced with addition of 0.2 nM aTc for TTA expression. Then, 2 h following induction of the TTAs, 1 mM aldehyde was added to the culture. Cultures were then incubated over 20 h at 30° C. with metabolite concentration measured via supernatant sampling and submission to HPLC. […]

B1: PbTTA: L-threonine transaldolase, SEQ ID NO: 16, Parachlamydiales bacterium, MBN2478762.1 (protein, listed as Parachlamydiales bacterium)
chain: METSLKDFETILHLINKEEIDSNDTIHMTANENIMSKLSKHYLKSTLSYRYHVGMFDDQKNLTVSRSCLIKNSLMLRCLSPIFLLEQQAREYVKKMFFAEYADFRPLSGMHTVFCILSTLTKPNDRVYVFTTESVGHAATVSLLKSLGRKVSFIPFCEKKLDIDLEKLSKQILIEKPNAILFDFGTPFYPLPIREIREIVGNDVKMIYDASHVLGLIAGGQFQNPLLEGCDVLIGNTHKTFPGPQKGMILYKNKSLGKEIATEIFKSAISAQHTHHAIALYVTIIEMYIHGKEYANQIIKNNHALSQALINEGFKIFKRKNQFSLSHMIAITGDFPIDHHVACADLHNSNISTNSRILYDFPAVRIGVQEVTRKGMKEKDMVQLAKFFKEIILDRKNISSKIKEFNNKFNSIEYSLDEIYEKLF
For the molecule B1, the Km in series [1] (apparent, phenylacetaldehyde (14) as aldehyde, ADH coupling, non-linear regression) came out at 10.9 mM. For the same molecule, in series [1] (phenylacetaldehyde as the aldehyde substrate), the “L-Thr kcat compared with ObiH” value is “higher measured L-Thr kcat values than ObiH”. For the same molecule, the β-OH-nsAA titer in series [2] (MG1655, 100 mM L-Thr supplemented) came to 0.47 ± 0.04 mM; in series [2] (MG1655, physiological levels of L-Thr), 0.09 ± 0.01 mM.

These data come from patent US20250215467A1, “L-THREONINE TRANSALDOLASES AND USES THEREOF” (University of Delaware, priority 2022, published 2025).
